B1: Azoarcus group I ribozyme (parent)
chain: GUGCCUUGCGCCGGGAAACCACGCAAGGGAUGGUGUCAAAUUCGGCGAAACCUAAGCGCCCGCCCGGGCGUAUGGCAACGCCGAGCCAAGCUUCGGCGCCUGCGCCGAUGAAGGUGUAGAGACUAGACGGCACCCACCUAAGGCAAACGCUAUGGUGAAGGCAUAGUCCAGGGAGUGGCGAAAGUCACACAAACCGG

Variants of: B1
Assay: reverse-splicing fitness (ratio to wild type); higher = more active; in vitro selection; Mg2+ level not given
Procedure, shortened: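 An in vitro group I ribozyme library with randomized positions was T7-transcribed and gel-purified. In triplicate, 10 pmol RNA in EPPS pH 7.5 was reacted with 50 pmoles of a 30-nt RNA substrate for 1 h at 37 °C across several added MgCl2 levels (1–48 mM), then stopped with EDTA. Products were reverse transcribed from a substrate-complementary primer, PCR-amplified and sequenced (HiSeq 4000). Fitness is a variant's read proportion after selection over that before, normalised to wild type.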

Row | Variant | reverse-splicing fitness
1 | C82A A111U A120U A145U C150A U176A | 0.00486
2 | C82A A111U A120U A145C C150A C169G U176C | 0.00303
3 | C82A A111U A120U A145C C150A C169G U176G | 0.0026
4 | C82A A111U A120U A145C C150A C169G U176A | 0.00303
5 | C82A A111U A120U C169U | 0.00502
6 | C82A A111U A120U C169G | 0.00434
7 | C82A A111U A120U C169A | 0.00416
8 | C82A A111U A120U A145C C150U C169G | 0.0029
9 | C82A A111U A120U A145C C150U C169U | 0.00328
10 | C82A A111U A120U A145C C150U C169A | 0.00277
11 | C82A A111U A145C | 0.28
12 | C82A A111U A145G | 0.313
13 | C82A A111U A120U A145G C150A C169G U176A | 0.0104
14 | C82A A111U A120U A145G C150A C169G U176G | 0.003
15 | C82A A111U A120U A145G C150A C169G U176C | 0.00688
16 | C82A A111U A120U A145C C150G C169A U176G | 0.00234
17 | C82A A111U A120U A145C C150G C169A U176C | 0.00302
18 | C82A A111U A120U A145C C150G C169A U176A | 0.00316
19 | C82A A111U A120U C169U U176G | 0.00228
20 | C82A A111U A120U C169U U176A | 0.00519
21 | C82A A111U A120U C169U U176C | 0.00461

Row | Variant | reverse-splicing fitness
22 | C82A A111U A120U A145C C150A C169U U176C | 0.00287
23 | C82A A111U A120U A145C C150A C169U U176G | 0.00186
24 | C82A A111U A120U A145C C150A C169U U176A | 0.00277
25 | C82A A111U A145C C150A C169U U176G | 0.00705
26 | C82A A111U A145C C150A C169U U176A | 0.0155
27 | C82A A111U A145C C150A C169U U176C | 0.0116
28 | C82A A111U A120U A145U C150U | 0.0173
29 | C82A A111U A120U A145U C150G | 0.00631
30 | C82A A111U A120U A145U C150A | 0.00619
31 | C82A A111U A120U A145G C150U C169U | 0.00663
32 | C82A A111U A120U A145G C150U C169G | 0.00728
33 | C82A A111U A120U A145G C150U C169A | 0.00728
34 | C82A A111U A120U C150G C169A U176A | 0.00623
35 | C82A A111U A120U C150G C169A U176C | 0.00557
36 | C82A A111U A120U C150G C169A U176G | 0.00311
37 | C82A A111U A120U A145C C150U C169A U176A | 0.00281
38 | C82A A111U A120U A145C C150U C169A U176G | 0.00224
39 | C82A A111U A120U A145C C150U C169A U176C | 0.00232
40 | C82A A111U A145C C150G C169U U176G | 0.00633
41 | C82A A111U A145C C150G C169U U176C | 0.0103
42 | C82A A111U A145C C150G C169U U176A | 0.00896

Row | Variant | reverse-splicing fitness
43 | C82A A111U A120U A145G C150A U176G | 0.00328
44 | C82A A111U A120U A145G C150A U176C | 0.00989
45 | C82A A111U A120U A145G C150A U176A | 0.00879
46 | C82A A111U A120U A145C C150G C169U U176C | 0.00285
47 | C82A A111U A120U A145C C150G C169U U176A | 0.00314
48 | C82A A111U A120U A145C C150G C169U U176G | 0.00301
49 | C82A A111U A145C C150G C169G | 0.00746
50 | C82A A111U A145C C150G C169A | 0.00825
51 | C82A A111U A145C C150G C169U | 0.00999
52 | C82A A111U A145C C150U | 0.0537
53 | C82A A111U A145C C150G | 0.0267
54 | C82A A111U A145C C150A | 0.0156
55 | C82A A111U A120U A145G C150G C169A U176C | 0.0099
56 | C82A A111U A120U A145G C150G C169A U176G | 0.00618
57 | C82A A111U A120U A145G C150G C169A U176A | 0.0119
58 | C82A A111U A120U A145C U176A | 0.00613
59 | C82A A111U A120U A145C U176C | 0.00758
60 | C82A A111U A120U A145C U176G | 0.00274
61 | C82A A111U A145G C150A C169U | 0.0111
62 | C82A A111U A145G C150A C169G | 0.00916
63 | C82A A111U A145G C150A C169A | 0.0117

Row | Variant | reverse-splicing fitness
64 | C82A A111U A120U A145C C150U C169G U176A | 0.00366
65 | C82A A111U A120U A145C C150U C169G U176C | 0.00274
66 | C82A A111U A120U A145C C150U C169G U176G | 0.00248
67 | C82A A111U A145C C150U C169A U176A | 0.0133
68 | C82A A111U A145C C150U C169A U176G | 0.00747
69 | C82A A111U A145C C150U C169A U176C | 0.00736
70 | C82A A111U A120U A145U C169A U176G | 0.00222
71 | C82A A111U A120U A145U C169A U176A | 0.00283
72 | C82A A111U A120U A145U C169A U176C | 0.00197
73 | C82A A111U A145C C150U U176G | 0.0107
74 | C82A A111U A145C C150U U176C | 0.0396
75 | C82A A111U A145C C150U U176A | 0.0254
76 | C82A A111U A120U A145U C150G C169A | 0.00467
77 | C82A A111U A120U A145U C150G C169G | 0.00379
78 | C82A A111U A120U A145U C150G C169U | 0.00332
79 | C82A A111U A120U A145C C150A U176A | 0.00368
80 | C82A A111U A120U A145C C150A U176C | 0.00426
81 | C82A A111U A120U A145C C150A U176G | 0.00255
82 | C82A A111U A120U A145U C150G C169U U176A | 0.00308
83 | C82A A111U A120U A145U C150G C169U U176G | 0.0027
84 | C82A A111U A120U A145U C150G C169U U176C | 0.00313

From the RNAGym collection of RNA variant scans (doi:10.1093/molbev/msab373)
